# Test results from patent EP4480965A1, “TRANSFERRIN RECEPTOR-BINDING MOLECULES, CONJUGATES THEREOF AND THEIR USES TO PREVENT OR TREAT CNS DISEASES” (Vect-Horus, priority 2023, dated 2024).
# Where two headings read alike, the source gives them in different places.
# B1: VHH B-siGFPst1: siGFPst1 conjugated to VHH B (conjugate)
# VHH: EVQLVESGGGVVQPGGSLRLSCAASGEIFSINFMRWYRQAPGKQREWVAGFTRDGSTNYPDSAKGRFTISRDNAKNTVYLQIDSLKPEDTAVYYCYMLDTWGQGTQVTVSSAAAEQKLISEEDLNGAAHHHHHHGS
# B2: VHH A-siGFPst1: siGFPst1 conjugated to a tagged VHH A (conjugate)
# VHH: EVQLVESGGGVVQPGGSLKLSCVASGTDFSINFIRWYRQAPGKQREFVAGFTATGNTNYADSMKGRFTISRDNTKNAVYLQIDSLKPEDTAVYYCYMLDKWGQGTQVTVSSAAAEQKLISEEDLNGAAHHHHHHGS
# B3: VHH A-NODAGA: VHH A-azide reacted with NODAGA-BCN (conjugate)
# VHH: EVQLVESGGGVVQPGGSLKLSCVASGTDFSINFIRWYRQAPGKQREFVAGFTATGNTNYADSMKGRFTISRDNTKNAVYLQIDSLKPEDTAVYYCYMLDKWGQGTQVTVSSAAAEQKLISEEDLNGAAHHHHHHGSAAAHHHHHHGGGLQR
# B4: VHH A-68Ga: VHH A-NODAGA radiolabeled using 68Ga chloride (conjugate)
# VHH: EVQLVESGGGVVQPGGSLKLSCVASGTDFSINFIRWYRQAPGKQREFVAGFTATGNTNYADSMKGRFTISRDNTKNAVYLQIDSLKPEDTAVYYCYMLDKWGQGTQVTVSSAAAEQKLISEEDLNGAAHHHHHHGSAAAHHHHHHGGGLQR
# Assays:
# human TfR = molecular target: T1, human TfR (Homo sapiens, UniProt P02786); assay: Flow cytometry apparent Kd (Kd app) on CHO cells expressing hTfR fused to EGFP; type: binding; conditions: bioconjugates (siGFPst1, NODAGA, 68Ga), 2 µM to 30 pM, 1 hr at 4°C
# T1 construct: expressed in transfected cells
# Experimental: After one wash in PBS/BSA 2%, cells were incubated for 1 hr with an anti-6His tag antibody (mouse), washed twice with PBS/BSA 2%, and incubated for 45 min with an Alexa647-conjugated anti-mouse secondary antibody. […] No labeling of the CHO WT control cells was detected with all the tested VHHs (not shown).
# After one wash in PBS/BSA 2%, cells were incubated for 1 hr with an anti-6His tag antibody (mouse), washed twice with PBS/BSA 2%, and incubated for 45 min with an Alexa647-conjugated anti-mouse secondary antibody. […] Fluorescence levels were assessed using an Attune NxT Flow Cytometer (Thermo Fisher Scientific). […] No labeling of the CHO WT control cells was detected with all the tested VHHs (not shown).
# The binding properties of VHHs with affinity for the TfR from different species (i.e., human (h), mouse (m) and rhesus monkey (rh)) were tested using flow cytometry, and apparent affinities (Kd app) were determined. […] CHO cell lines expressing the hTfR, mTfR or rhTfR fused to EGFP were saturated with PBS/BSA 2% solution during 30 min to avoid nonspecific binding, followed by incubation with purified VHHs at increasing concentrations for 1 hr. After one wash in PBS/BSA 2%, cells were incubated for 1 hr with an anti-6His tag antibody (mouse), washed twice with PBS/BSA 2%, and incubated for 1 hr with an Alexa647-conjugated anti-mouse secondary antibody. After two last washes in PBS/BSA 2%, cells were fixed by incubation for 15 min with PBS/PFA 2%, washed once with PBS and finally resuspended in PBS. Fluorescence levels were assessed using an Attune NxT flow cytometer (Thermo Fisher Scientific).
# GFP [1] = conditions: for reduction of GFP protein levels: 120 hrs at 37°C
# Experimental: Third, the ability of the VHH A, once conjugated to siGFPst1, to trigger hTfR-mediated endocytosis and subsequent delivery into the cytosol of target cells in pharmacological amounts was assessed. The VHH A-siGFPst1 or the control VHH Z-siGFPst1 bioconjugates were incubated on CHO-hTfR-GFP cells at 1 µM during 120 hrs at 37°C to allow free uptake, delivery to the cytosol and gene silencing to take place at the mRNA transcript and protein levels. […] Next, the VHH A-siGFPst1 bioconjugate was incubated on CHO-hTfR-GFP cells at concentrations ranging from 3 µM to 10 pM during 120 hrs.
# Fifth, the TfR-mediated GFP-silencing effect of the VHH A-siGFPst1 bioconjugate was evaluated using a pulse-chase procedure. CHO-hTfR-GFP cells were exposed to VHH A-siGFPst1 at concentrations ranging from 300 nM to 1 pM during a short duration (6 hours), followed by chase in ligand-free medium up to a total duration of 120 hrs.
# Finally, the ability of the VHH B to trigger hTfR-mediated endocytosis and subsequent gene silencing was evaluated by incubating the VHH B-siGFPst1 bioconjugate on CHO-hTfR-GFP cells at 30 nM during 120 hrs. […] To the best of our knowledge, receptor-mediated hepatocyte uptake through the asialoglycoprotein receptor (ASGPR) using triantennary GalNAc as a targeting ligand is the only ligand/receptor system able to trigger specific and efficient gene silencing at nanomolar concentrations. However, the use of this system for in vivo therapeutic applications with therapeutic nucleic acids is restricted to hepatic targets, since ASGPR is expressed in vivo exclusively in hepatocytes.
# GFP [2] = system: GFP
# Experimental: Second, the intrinsic silencing activity of the VHH-siGFPst1 bioconjugate was assessed in living CHO cell lines stably expressing the TfR fused to EGFP (CHO-hTfR-EGFP cells) by transfection of the conjugate at 25 nM using Dharmafect 1 (Dharmacon) for direct delivery into the cytosol. The total cellular amount of GFP was quantified 72 hours post-transfection using flow cytometry. […] In another series of experiments, the VHH A-siGFPst1 conjugate was transfected on CHO-hTfR-EGFP cells at concentrations ranging from 10 nM to 1 pM and the total cellular amount of GFP was quantified 120 hours post-transfection using flow cytometry.
# T1 sequence (P02786 whole entry, the tested form may be a part): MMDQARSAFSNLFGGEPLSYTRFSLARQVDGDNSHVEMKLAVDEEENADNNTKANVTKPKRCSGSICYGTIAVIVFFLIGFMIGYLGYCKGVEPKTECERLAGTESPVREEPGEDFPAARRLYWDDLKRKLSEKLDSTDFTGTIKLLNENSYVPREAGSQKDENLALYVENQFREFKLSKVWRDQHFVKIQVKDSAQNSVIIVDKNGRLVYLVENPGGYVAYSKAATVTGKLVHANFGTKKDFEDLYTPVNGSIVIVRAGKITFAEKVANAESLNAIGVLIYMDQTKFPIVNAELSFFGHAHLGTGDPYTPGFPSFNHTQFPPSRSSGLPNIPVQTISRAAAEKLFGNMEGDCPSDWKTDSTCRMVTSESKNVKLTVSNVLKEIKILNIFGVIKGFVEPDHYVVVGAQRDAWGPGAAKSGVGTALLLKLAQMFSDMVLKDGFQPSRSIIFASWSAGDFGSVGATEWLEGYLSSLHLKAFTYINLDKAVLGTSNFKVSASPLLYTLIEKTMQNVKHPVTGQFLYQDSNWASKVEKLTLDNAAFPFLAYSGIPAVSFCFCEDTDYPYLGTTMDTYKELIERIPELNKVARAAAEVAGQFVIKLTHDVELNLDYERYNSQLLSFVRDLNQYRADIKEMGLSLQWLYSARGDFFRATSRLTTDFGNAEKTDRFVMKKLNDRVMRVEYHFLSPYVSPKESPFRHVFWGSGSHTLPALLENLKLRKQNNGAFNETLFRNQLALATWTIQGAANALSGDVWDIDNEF
Molecule,apparent hTfR-binding affinity (Kd app) (human TfR),"reduction of GFP protein levels (GFP [1]; free uptake, 30 nM)","IC50 (GFP [2]; read-out: IC50 (reduction of GFP protein levels), transfection 10 nM to 1 pM, 120 hours) [nM]","maximum silencing efficiency (GFP [2]; transfection 10 nM to 1 pM, 120 hours) [%]","reduction of GFP protein levels (GFP [2]; transfection at 25 nM, 72 hours post-transfection)","GFP protein levels, % of the control levels (GFP [1]; 30 nM with 100X excess of free VHH A, 120 hrs) [%]","GFP protein levels, % of the control levels (GFP [1]; 30 nM with 100X excess of free VHH B, 120 hrs) [%]","competition of the silencing effect (GFP [1]; 30 nM with 100X excess of irrelevant VHH Z, 120 hrs)","reduction of GFP protein levels (GFP [1]; free uptake, 1 µM)","maximum silencing efficiency (GFP [1]; free uptake, continuous 120 hrs) [%]"
B1,low nanomolar range,ca. -60%,–,–,–,–,–,–,–,–
B2,low nanomolar range,ca. 60%,0.0504,-90.2,ca. 85%,85,96,no competition,ca. -70%,-61.6 ± 2.9
B3,low nanomolar range,–,–,–,–,–,–,–,–,–
B4,low nanomolar range,–,–,–,–,–,–,–,–,–
